Measurements as given in patent US20220356221A1 (ASKGENE PHARMA, published 2022).

Target: human IL-12 receptor on HEK-Blue IL-12 reporter cells (human, UniProt P42701 24-662; Q99665 24-862)
Assay: cell-based or functional assay

human IL-12 receptor on HEK-Blue IL-12 reporter cells, sequence (Q99665 24-862, chain 2 of 2, other chains not shown): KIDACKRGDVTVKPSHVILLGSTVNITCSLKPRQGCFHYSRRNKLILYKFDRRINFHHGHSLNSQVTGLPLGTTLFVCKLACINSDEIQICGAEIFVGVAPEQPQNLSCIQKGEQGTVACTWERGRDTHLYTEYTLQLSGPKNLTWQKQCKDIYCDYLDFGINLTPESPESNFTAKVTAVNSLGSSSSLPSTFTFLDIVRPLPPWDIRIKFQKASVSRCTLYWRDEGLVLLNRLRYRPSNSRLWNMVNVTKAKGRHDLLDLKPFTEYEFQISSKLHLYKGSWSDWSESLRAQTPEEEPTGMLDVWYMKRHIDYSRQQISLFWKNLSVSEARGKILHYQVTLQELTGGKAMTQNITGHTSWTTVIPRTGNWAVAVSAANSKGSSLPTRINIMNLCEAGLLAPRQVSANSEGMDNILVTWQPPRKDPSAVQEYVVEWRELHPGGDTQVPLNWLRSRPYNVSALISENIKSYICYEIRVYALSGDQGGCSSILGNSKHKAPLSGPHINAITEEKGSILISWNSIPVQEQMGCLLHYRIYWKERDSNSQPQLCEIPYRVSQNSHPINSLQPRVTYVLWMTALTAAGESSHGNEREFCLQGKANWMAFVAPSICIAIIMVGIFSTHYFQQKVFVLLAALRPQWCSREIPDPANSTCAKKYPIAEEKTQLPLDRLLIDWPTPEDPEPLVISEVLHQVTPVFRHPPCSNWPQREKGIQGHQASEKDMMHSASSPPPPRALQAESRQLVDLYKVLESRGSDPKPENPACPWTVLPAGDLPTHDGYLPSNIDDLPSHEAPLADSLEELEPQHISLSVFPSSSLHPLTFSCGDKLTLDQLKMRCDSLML

B1: IL-12 prodrug JR3.105.5 after protease treatment (activated) (Fc fusion)
chain: DKTHTCPPCPAPELLGGPSVFLFPPKPKDTLMISRTPEVTCVVVDVSHEDPEVKFNWYVDGVEVHNAKTKPREEQYASTYRVVSVLTVLHQDWLNGKEYKCKVSNKALPAPIEKTISKAKGQPREPQVYTLPPCRDELTKNQVSLWCLVKGFYPSDIAVEWESNGQPENNYKTTPPVLDSDGSFFLYSKLTVDKSRWQQGNVFSCSVMHEALHNHYTQKSLSLSPGAGGGGSGGGGSGGGGSIWELKKDVYVVELDWYPDAPGEMVVLTCDTPEEDGITWTLDQSSEVLGSGKTLTIQVKEFGDAGQYTCHKGGEVLSHSLLLLHKKEDGIWSTDILKDQKEPKNKTFLRCEAKNYSGRFTCWWLTTISTDLTFSVKSSRGSSDPQGVTCGAATLSAERVRGDNKEYEYSVECQEDSACPAAEESLPIEVMVDAVHKLKYENYTSSFFIRDIIKPDPPKNLQLKPLKNSRQVEVSWEYPDTWSTPHSYFSLTFCVQVQGKSKREKKDRVFTDKTSATVICRKNASISVRAQDRYYSSSWSEWASVPCSGGGGSGGGGSGGGGSRNLPVATPDPGMFPCLHHSQNLLRAVSNMLQKARQTLEFYPCTSEEIDHEDITKDKTSTVEACLPLELTKNESCLNSRETSFITNGSCLASRKTSFMMALCLSSIYEDLKMYQVEFKTMNAKLLMDPKRQIFLDQNMLAVIDELMQALNFNSETVPQKSSLEEPDFYKTKIKLCILLHAFRIRAVTIDRVMSYLNAS
EC50 in the cell-based IL-12 reporter assay (HEK-Blue IL-12, STAT4-inducible SEAP, OD630): ~50 pM | fold activation based on the EC50 values (after protease treatment against prior to it): ~18 fold
